Measurements reported in the nanobody polyreactivity screen of Harvey et al. (2022).

Assay: yeast display, Sf9 membrane polyspecificity reagent, FACS + sequencing; frameworks hold sequencing errors
In short: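 After 36–48 hours of galactose induction, yeast (Saccharomyces cerevisiae BJ5465) displaying a synthetic nanobody library were stained at 4 °C for 1 hour with 10% biotinylated, detergent-solubilized Sf9 membrane reagent. Streptavidin microbeads enriched the stained cells before FACS sorting into low and high (top ~1%) gates on anti-HA and streptavidin fluorescence. Each clone's polyreactivity label reflects its gate of origin.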

Sequence	polyreactivity (PSR sort gate)
QVHLVESGGGLVQAGGSLRLSCAASGRSFRRNARGWYRQAPGKERELVATISSGGTTKYADSVKGRFTISRDNAKYTVYLQMNNLKPEDTAVYYCNADLNRRTYGPDSYYWGQGNQVTVSS	high polyreactivity
QVQIVDSGAVIVQAGGSLRLSCDASGRIILINAMGWYRQAPGKERELVAAITSSGGSTYYADSVKGRFTISRDNAKNTVYLQMNSLKPEDTAVYYCAAARYSRYDYWGQGTQVTVSS	high polyreactivity
QVQLVESGGGLVQAGGRLRLSCAASGRNFEPYAMGWYRQAPGKERELVAAISRSGGRTYYADSVKGRFTISRDNAKNTVYLQMNSLKPEDTAVYYCAAVGVYWYVYPHEYDYWGQGTQVTVSS	high polyreactivity
QVQLVESGGGLVQAGGSLRLSCAASGITFVHYAMGWYRQAPGKERELVAAITVGDGGTYYADSVKGRFTISRDNAKNTVYLQMNSLKPEDTAVYYCAAGFYSYSWYVKLAYGYWGQGIQVTVSS	low polyreactivity
QVQLVESGGGLVQAGGSLRLSCAASGSIFQRYAMGWYRQAPGKERELVAGINWSGGRTYYADSVKGRFTISRDNAKNTVYLQMNSLKPEDTAVYYCAKPVERYTYSLYQQYDYWGQGTQVTVSS	high polyreactivity
QVLLQESGAGLVQAGGSLRLSCAASGTISTDIRMGWYRLAPGKEREFVASIDGCSTTYYADSVKGRFTISRDNAKNSVYLQLNSLKPEDTAMYYCAAREDTEFYLYYWGQGNQVTVSS	low polyreactivity
QVQLVESGGGLVQAGGSLRLSCAASGFIYGSNAMGWYRQAPGKERELVAAISRSGGSTYYADSVKGRFTISRDNAKNTVYLQMNSLKPEDTAVYYCNVDLWTFVYSWWSYDYWGQGTQVTVSS	high polyreactivity
QVQLVESGGGLVQAGGSLRLSCAASGIFRLNAMGWYRQAPGKERELVAAISWSGGSTRYADSVKGRFTISRDNAKNTVYLQMNSLKPEDTAVYYCAKKLRGWHTIITDYDYWGLGTQVTVSS	low polyreactivity
QVQLVESGGGLVQAGGSLRLSCAASGSTFGGYAMGWYRQAPGKERELVAGITISVGSTYYADSVKGRFTISRDNAKNTVYLQMNSLKPEDTAVYYCAADGLSWYNYWGQGTQVTVSS	high polyreactivity
QVQLVESGGGLVQAGGSLRLSCAASGSILKFNAMGWNRQAPGKERELVAAITRGTNTYYADSVKGRFTISRDNAKNTVYLQMNTLKPEDTAVYYCAARLPYNAIGYYYWGQGTQVTVSS	low polyreactivity
QVQLVESGGGLVQAGGSLRLSCAASGITFSSYTMGWYRQARGKERELVAAISRTGGSTYYADSVKGRFTISRDNAKNTVYLQMNSLIPEDTAVYYCAARVAGRTLSGGDYWGQGTQVTVSS	high polyreactivity
QVQLVESGGGLVQAGGSLRLSCAASGLIFESNAMGWYRQAPGKGRELVAAITTNGGSTYYADSVKGRFTISRDKGKNTVYLQMNSLKPEDTAVYYCAARFSYRSYDYWGQGTQVTVSS	low polyreactivity
QVQLVESGGGLVQAGGSLRLTCAASGSIFTGNTMGWYRQATGKERELVAAITGSGGRTYYADSVKGRFTISRDNAKNTVYLQMNSLKPEDTAVYYCAADRSYYPDTRTTYGYNYWGQGTQVTVSS	low polyreactivity
QVQLVESGGGLVQAGGSLRLSCADSGSTFEYNDMGWYRQEPGKERELVASSTYYADSVQGRFTISRDNAKNTVYLQMNSLKPEDTAVYFCAREQGVNRNHDYWGQGTLVTVSS	low polyreactivity
QVQLVESGGGLVQAGGSLRLSCAASGRTFRKYAMGWSRQAPGKERELVAAINRGGTTKYADSVKGRFTISRDNAKNTVYLQMNSLKPEDTAVYYCNAAYGGVFFYAYDYWGQGTQVTVSS	low polyreactivity
QVQLEESGGGLVQAGGSLRLSCAASGRIFGGYAMGWYRQAPGKERELVAAISRNGGNTYYADSVKGRFTISRDNAKNTVYLQMNSLKPEDTAVYYCAATYDGTYDYWGQGTQVTVSS	high polyreactivity
QVQLVESGGGLVQAGGSLRLSCAASGSTFFTNAMGWYRQAPGKERELVATITWSGGSTYADSVKGRFTISRDNAKNTVYLQMNSLKPEDTAVFYCAAESSSYWGDQGGALWLYDYWGQGTQVTVSS	low polyreactivity
QVQLVESGGGLVQAGGSLRLSCAASGIIFRYYAMGWYRQAPGKERELVAAISWSTDSTYYADSVKGRFTISRDNAKNTVYLPMNSLKPEDTAVYYCNARPSYYRISPYDYWGQGTQVTVSS	high polyreactivity
QVQLVESGGGLVQAGGRLRLSCAASGIIFRWYTMGWYRQAPGKERELVAAISTSTGSTYYADSVKGRFTISRDNAKNTVYLQMNSLKPEDSAVYYCAAVYAYWNYESYYWGQGTQVTVSS	high polyreactivity
QVQLVESGGGLVQAGGSLRLSCAASGSTFGYYAMGWYRQAPGKERELVAAISWSGGSTYYADSVKGRFTISRDNAKNTVYLQMNSLKPEDTAVYYCNKVRGKTYYGEGDYWGQGTQVTVSS	high polyreactivity
QVHLVESGGGLVQAGGSLRLSCAASGRTLYYYTMGWYRQAPGKERDLVAAIRWSTGSTYYADSVKGRFTISRDNAKNTVYLQMNSLKPEDTAVYYCNASRYQWAQSTEYDYWGQGTQVTVSS	high polyreactivity
QVQLVESGGGLVQAGGSLRLSCAASGFTFYRNAMGWYRQAPGKERELVAAISWRGSSTYYADSVKGRFTISRDNAKNTVYLQMNSLKPEDTAVYYCATEYPYWYYYRMDYWGQGTQVTVSS	high polyreactivity

Sequence	polyreactivity (PSR sort gate)
QVQLVESGGGLVQAGGSLRLSCAASGNIFSYYAMGWYRQAPGKERELVAAISSGGSTYYADSVKGRFTISRDNAKNTVYLQMNSLKPEDTAVYYCATSYFSYFFYEYYSWGQGTQVTVSS	low polyreactivity
QDQLVESGGGLVQWGRSLGIRCAASGRIFNVKAMGWYRQAPGNEREFDAAISGSVGSTYYADSVKGRFTISRDNAKYSVYLQHNSLKRLDTAVYYCAARYGYDRNRRPGYVYWGQGTQVTVSS	low polyreactivity
QVQLVESGGGLVQAGGSLRLSCADSGFTFDYYTMGWYRQAPGKDRELVAAITYSGGITYYADSVKGRFTISRDNAKNTVYLQMNSLKPEDTAVYYCNARYSPRTGRGRHVTYYYWGQGTQVTVSS	high polyreactivity
QVQLVETGGGLVQAGGSLRLSCAASGITFRGYAMGWYRQAPGKERELVAAISGSGGTTYYADSVKGRFTISRDNAKNTVYLQMNSLKPEDTAVYYCNAKAVRGRYVWYDYWGQGTQVTVSS	high polyreactivity
QVQLVESGGGLVQAGGSLRLSCAASGNIFKVYVMGWYRQAPGKERELVAAISGSGGSTYYADSVKGRFTISRDNAKNTVYLQMNSLKPEDTAVYYCNKVFKVTAARSFGYWGQGTQVTVSS	low polyreactivity
QVQLVESGGGLVQAGGSLRLSCAASGRILGDYAMGWYIQAPGKERELVAAISSGGTTYYADSVKGRFTISRDNAKNTVYLQMNSLKPEDTAVYYCAALTSTLPAYGYWGQGTQVTVSS	low polyreactivity
QVQLVESGGGLVQAGGSLRISCAASGSIFVTNAMGWYRQAPGKERELVAAISSGGNTNYADSVKGLFTISRDNAKNTVYLQMNSLKPEDTAVYYCAKDPDKVDYVDMDYWGQGTQVTVSS	low polyreactivity
QVQLVESGGGLVQAGGSLRLSCAASGIIFDINAMGWYRQAPGKERELVAAITTSVDSTYYADSVKGRFTISRDNAKNTVYLQMNSLKPEDTAVYYCAVAFVQFTQYYYWGQGSQVTVSS	low polyreactivity
QVQHVESGGGLVQAGGSLRLSCAASGLIFPRYAMGLYRQAPGKERELVAAINWRGGITYYADSVKGRFTISRDNAKNTVYLQMNSLKPEDTAVYYCAAAVKHVAYHYNYWGQGTQVTVSS	high polyreactivity
QVQLVESGGGLVQAGGILRLSCAASGLTFSRYDMGWYRPEPGKERELVAAITWSGSSTYYADSVKGRFTLSRDNAKNTVYLQMNSLKRVDTAVYYCAARYGYSRGPYYRSYYWGQGTQVTVSS	high polyreactivity
QVHLVESGGGLVQAGGSLRLSCAASGRIFVKYAMGCYRQAPGKERELVAAIRSGGSTYYADSVKGRFTISRDNAKNTVYLQMNSLKPEDTAVYYCAADRNKHHYYTEPYDYWGQGTQVTVSS	low polyreactivity
QVQLVESGGGLVQAGGSLRLSCAASGRTFLLYAMGWYRQAPGKERELVAAIRSSTVSTYYADSVKGRFTISRDNAKNTVYLQMNSLKPEDTAVYYCAASRPKYGPSGVHYNYWGQGTQVTVSS	high polyreactivity
QVQLVESGGGLVQAGGSLRLSFAASGSTFYVYPMGWYRQAPGKERELVAAITDSGGSTYADSVKGRFTISRDNAMNTVYLQFNSLKPEASAVYADSTFYWYYYYWGQGPQVTVSS	low polyreactivity
QVQLVESGGGLVQAGGSLRLSSAASGFNSSRNAMGWYRQAPGKERELVATISSGGDTYYADSVKGRFTISRDNAKNTVYLQMNSLKPEDTAVYYCATDRAERTGYTRYVKTYNYWGQGTQVTVSS	low polyreactivity
QVQLVDSGGGLVQAGGSLRLSCAASGRIFEGDAMGWYIQAPGKESDLVASISYDGGSTYYADSVKGRFTISRDNENITVELQMNSLKPEDTAVYYCAAVYRRRSYSFYYWGQGTQVTVSS	high polyreactivity
QVQLVESGGGFVQAGGSLRLSCAASGSTFKTYTLGWYRQAPGKDRELVAGITSGGSTSYADSVKGRFTISRDNAKNTVYLQMNSLKPEATAVYYCNADAYLVIYFYTVRDYGYDYWGQGTQVTVSS	low polyreactivity
QVQLVESGGGLVQAGGSLRLSCAASGSARYAMGWYRQAPGKERELVAAISRRGGSTFYADSVKGRFTISRDNAMNTVYLQMNSLKPEDTAVYYCAADGRISYDYWGQGTQVTVSS	low polyreactivity
QVQLVESGGGLVQAGASLRLSCAASGGIFVVYGMGWYRQAPGNERELVAAISWRGGSTYYADSVKGRFTISRDNAKNTVYLQMNSLKPEDTAVYYCAADQYYGGYDYWGQGTQVTVSS	low polyreactivity
QVQLVESGVGLVQAGGSLRLSCAASGLTFYLYSMGWYRQAPGKERELVAAINSRGGNTYYADSVKGRFTISRDKAKNTVDLQMNSLKPEDTAVYYCAADWGPWYYYWGQGTQVTVSS	high polyreactivity
QVQLVESGGGLVQAGGSLRVSCAASGRIFYPYAMGWYRQAPGKERELVAAIRRSGVDTYYADSVKGRFTISRDNAKNTVYLQMNSLKPEDTAVYYCDADPYWFFPHYDSWGQGTQVTVSS	low polyreactivity
QVQLVESGGGLVQAGGSLRLSCAASGRTFSPYAMGWYRQAPGKERDLVAAINGGGGTTYYADSVKGRFTISRDNAKNTVYLQMNSLKPEDTAVYYCAAGYNYTSYADLDYWGQGTQVTVSS	low polyreactivity
